Biological target: α-synuclein, 140-residue isoform (αSyn-140) (human) (UniProt P37840)

decrease in aggregation half-time (t1/2) by ThT fluorescence of 90% (45 µM) αSyn-140 co-incubated with 10% (5 µM) αSyn-112 monomers, against 100% (50 µM) αSyn-140: 25%
Substance: α-synuclein splice isoform αSyn-112 (lacking exon 5) (from UniProt P37840-2 1-112) (natural protein)
